Experimental data reported in PMC9482650, “Quantitative fragmentomics allow affinity mapping of interactomes” (Nature Communications, 2022).
One block for each binder: values may come before it.

Tests used:
Experiment in all cases: holdup assay
Set-up in all cases: key: below the threshold = too weak to quantify, mostly under pKd 3.1 to 4
Settings in all cases: plain residues with an end cap or a label only (N-terminal biotin on a linker: ado-ado)
[1] = biological target: T1, GRIP1_3, Q9Y3R0
T1 sequence (Q9Y3R0 247-346, limits assumed, looked up): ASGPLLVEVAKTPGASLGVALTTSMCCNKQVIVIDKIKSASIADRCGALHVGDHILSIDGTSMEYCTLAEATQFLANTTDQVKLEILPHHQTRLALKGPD

[2] = biological target: NHERF4_2, Q86UT5
Chain of NHERF4_2, Q86UT5 (Q86UT5 220-308): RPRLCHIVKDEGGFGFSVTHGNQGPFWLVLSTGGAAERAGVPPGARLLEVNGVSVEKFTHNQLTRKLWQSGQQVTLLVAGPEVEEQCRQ

[3] = biological target: Inadl_10, Q8NI35
Chain of Inadl_10, Q8NI35 (Q8NI35 1673-1763): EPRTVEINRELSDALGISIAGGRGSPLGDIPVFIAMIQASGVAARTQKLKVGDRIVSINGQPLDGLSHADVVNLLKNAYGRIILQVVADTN

[4] = biological target: MAGI2_3, Q86UL8
Chain of MAGI2_3, Q86UL8 (Q86UL8 600-682): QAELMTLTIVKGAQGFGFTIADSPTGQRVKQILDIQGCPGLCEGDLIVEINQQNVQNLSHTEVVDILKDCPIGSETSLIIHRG

[5] = biological target: MAGI2_5, Q86UL8
Chain of MAGI2_5, Q86UL8 (Q86UL8 915-1017): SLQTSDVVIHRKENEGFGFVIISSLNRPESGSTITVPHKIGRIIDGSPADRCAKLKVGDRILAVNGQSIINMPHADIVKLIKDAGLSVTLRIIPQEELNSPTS

[6] = biological target: T2, DVL3, Q92997
T2 sequence (Q92997 244-331, limits assumed, looked up): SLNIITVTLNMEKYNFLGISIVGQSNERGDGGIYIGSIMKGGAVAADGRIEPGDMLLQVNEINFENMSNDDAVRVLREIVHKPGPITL

[7] = biological target: T3, DFNB31_1, Q9P202
T3 sequence (Q9P202 135-233, limits assumed, looked up): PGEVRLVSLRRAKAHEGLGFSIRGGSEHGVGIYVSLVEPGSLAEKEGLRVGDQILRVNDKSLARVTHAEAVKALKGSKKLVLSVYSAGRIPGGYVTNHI

[8] = biological target: SCRIB_3, Q14160
Chain of SCRIB_3, Q14160 (Q14160 999-1103): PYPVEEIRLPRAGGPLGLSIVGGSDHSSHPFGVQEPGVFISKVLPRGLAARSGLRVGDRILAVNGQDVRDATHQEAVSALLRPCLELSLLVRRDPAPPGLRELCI

[9] = biological target: DLG1_2, Q12959
Chain of DLG1_2, Q12959 (Q12959 314-412): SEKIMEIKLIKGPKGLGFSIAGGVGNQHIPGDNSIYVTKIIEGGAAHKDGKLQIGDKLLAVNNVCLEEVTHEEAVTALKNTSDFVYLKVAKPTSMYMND

[10] = biological target: T4, PDZRN3_1, Q9UPQ7
T4 sequence (Q9UPQ7 244-349, limits assumed, looked up): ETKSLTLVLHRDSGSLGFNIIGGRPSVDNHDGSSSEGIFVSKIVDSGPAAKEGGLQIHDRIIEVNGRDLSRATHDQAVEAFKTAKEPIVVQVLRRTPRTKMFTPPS

[11] = biological target: T5, RHPN1, Q8TCX5
T5 sequence (Q8TCX5 508-602, limits assumed, looked up): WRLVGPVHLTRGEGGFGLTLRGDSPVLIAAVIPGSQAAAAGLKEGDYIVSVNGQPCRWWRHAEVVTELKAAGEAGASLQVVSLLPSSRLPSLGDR

[12] = biological target: DLG2_3, Q15700
[13] = biological target: Inadl_4, Q8NI35
Chain of Inadl_4, Q8NI35 (Q8NI35 547-651): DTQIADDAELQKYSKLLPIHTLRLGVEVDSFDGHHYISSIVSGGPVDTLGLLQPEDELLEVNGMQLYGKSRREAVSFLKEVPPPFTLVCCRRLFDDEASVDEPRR

[14] = biological target: T6, APBA2_1, Q99767
T6 sequence (Q99767 563-664, limits assumed, looked up): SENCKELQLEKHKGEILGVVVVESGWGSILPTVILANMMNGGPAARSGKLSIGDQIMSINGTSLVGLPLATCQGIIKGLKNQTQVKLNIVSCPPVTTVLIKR

[15] = biological target: ARHGEF12, Q9NZN5-2
Chain of ARHGEF12, Q9NZN5-2 (Q9NZN5 other isoform, or with tags, fused parts or gaps): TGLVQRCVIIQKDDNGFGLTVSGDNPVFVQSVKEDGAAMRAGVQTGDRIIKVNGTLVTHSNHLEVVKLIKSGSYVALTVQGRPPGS

[16] = biological target: AHNAK1, Q09666
Chain of AHNAK1, Q09666 (Q09666 4-100): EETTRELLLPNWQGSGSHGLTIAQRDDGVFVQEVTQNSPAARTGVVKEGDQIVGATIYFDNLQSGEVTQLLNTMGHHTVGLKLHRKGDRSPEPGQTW

[17] = biological target: T7, SNTG2, Q9NY99
T7 sequence (Q9NY99 68-166, limits assumed, looked up): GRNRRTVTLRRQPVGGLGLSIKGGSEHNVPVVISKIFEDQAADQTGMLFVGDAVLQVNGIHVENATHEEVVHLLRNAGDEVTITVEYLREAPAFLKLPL

[18] = biological target: T8, LRRC7, Q96NW7
T8 sequence (Q96NW7 1440-1537, limits assumed, looked up): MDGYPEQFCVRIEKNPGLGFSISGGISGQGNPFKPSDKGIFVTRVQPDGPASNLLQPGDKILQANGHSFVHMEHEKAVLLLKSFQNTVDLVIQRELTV

[19] = biological target: T9, SNTB1, Q13884
T9 sequence (Q13884 107-205, limits assumed, looked up): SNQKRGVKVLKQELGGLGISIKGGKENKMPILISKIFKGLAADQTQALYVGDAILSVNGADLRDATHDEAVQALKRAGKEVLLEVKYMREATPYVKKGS

[20] = biological target: T10, GRIP1_2, Q9Y3R0
T10 sequence (Q9Y3R0 145-248, limits assumed, looked up): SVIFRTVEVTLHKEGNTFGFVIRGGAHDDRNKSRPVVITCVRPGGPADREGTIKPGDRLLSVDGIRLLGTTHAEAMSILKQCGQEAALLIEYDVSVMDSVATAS

[21] = biological target: T11, RADIL, Q96JH8
T11 sequence (Q96JH8 971-1071, limits assumed, looked up): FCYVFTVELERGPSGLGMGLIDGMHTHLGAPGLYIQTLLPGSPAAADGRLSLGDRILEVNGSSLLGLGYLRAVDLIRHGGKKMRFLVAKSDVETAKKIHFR

[22] = biological target: SCRIB_1, Q14160
Chain of SCRIB_1, Q14160 (Q14160 718-814): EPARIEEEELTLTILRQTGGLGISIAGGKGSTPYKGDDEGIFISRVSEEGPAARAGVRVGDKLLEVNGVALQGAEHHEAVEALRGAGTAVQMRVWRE

[23] = biological target: DLG4_3, P78352
Chain of DLG4_3, P78352 (P78352 306-403): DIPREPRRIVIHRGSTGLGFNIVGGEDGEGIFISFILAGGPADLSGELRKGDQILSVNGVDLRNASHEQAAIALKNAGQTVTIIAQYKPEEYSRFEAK

[24] = biological target: PARD3_3, Q8TEW0
Chain of PARD3_3, Q8TEW0 (Q8TEW0 582-685): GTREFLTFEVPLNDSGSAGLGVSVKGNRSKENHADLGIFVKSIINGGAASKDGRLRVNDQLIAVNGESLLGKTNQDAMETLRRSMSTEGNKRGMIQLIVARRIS

[25] = biological target: T12, MPDZ_12, O75970
T12 sequence (O75970 1857-1958, limits assumed, looked up): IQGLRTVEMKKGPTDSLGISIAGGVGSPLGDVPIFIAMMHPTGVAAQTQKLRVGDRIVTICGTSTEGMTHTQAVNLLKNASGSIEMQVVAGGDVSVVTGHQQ

pKd [1]: below the threshold | pKd [2]: below the threshold | pKd [3]: below the threshold | pKd [4]: below the threshold | pKd [5]: below the threshold | pKd [6]: below the threshold | pKd [7]: below the threshold | pKd [8]: below the threshold | pKd [9]: below the threshold | pKd [10]: below the threshold | pKd [11]: 3.79 | pKd [12]: 3.62 | pKd [13]: below the threshold | pKd [14]: below the threshold | pKd [15]: 3.71 | pKd [16]: below the threshold | pKd [17]: below the threshold | pKd [18]: below the threshold | pKd [19]: below the threshold | pKd [20]: below the threshold | pKd [21]: below the threshold | pKd [22]: below the threshold | pKd [23]: below the threshold | pKd [24]: below the threshold | pKd [25]: 3.53
B1: TNRC6B, Q9UPQ9 (peptide)
chain: DLLGGGSDSI

pKd [1]: below the threshold | pKd [2]: 3.49 | pKd [3]: 3.95 | pKd [4]: 3.98 | pKd [5]: 3.99 | pKd [6]: below the threshold | pKd [7]: 4.06 | pKd [8]: 4.24 | pKd [9]: 4.43 | pKd [10]: 3.92 | pKd [11]: 3.81 | pKd [12]: 4.24 | pKd [13]: below the threshold | pKd [14]: below the threshold | pKd [15]: 4.54 | pKd [16]: below the threshold | pKd [17]: 3.84 | pKd [18]: below the threshold | pKd [19]: 4.25 | pKd [20]: below the threshold | pKd [21]: 4.05 | pKd [22]: 4.53 | pKd [23]: 3.71 | pKd [24]: below the threshold | pKd [25]: 3.84
B2: SORCS3, Q9UPU3 (peptide)
chain: TKEIPNCTSV
